Source: the supplement of paper PMC10126150
± gives the standard deviation of the averaged measurements.

Tested on: ATP
Assay: switch fluorescence ratio, 500 uM ATP over buffer (Cy3 cluster intensity, sum of 5 cycles each) (fold (ratio)); higher = stronger signal-on switching upon ATP binding; sequences stand for … in TCGTCGGCAGCGTCAGATGTGTATAAGAGACAGTTTTTTTTTTTTTTTTTTTTTTTTT…TC
Details: aptamer strand: ATP DNA aptamer (quencher-CACCTGGGGGAGTATTGCGGAGGAAGG + anchor), 100 nM annealed; ATP concentration: 500 uM
Summary of the method: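 For every switch-domain sequence, the fluorescence ratio is the mean of per-cluster values, each being summed target-cycle Cy3 intensity over summed buffer-cycle Cy3 intensity. Clusters outside 100-1000 RFU were excluded. On a modified Illumina MiSeq flow-cell, the Cy3-labelled switching-strand clusters were annealed to 100 nM quencher-labelled ATP aptamer, imaged in selection buffer and then after 15 min with 500 uM ATP at 22 °C. Five such cycles were run, with NaOH stripping and re-annealing between them.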
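Note: ATP exposure 15 min at 22 °C before imaging.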

Row | Sequence | switch fluorescence ratio
1 | CTGGTTTGGA | 1 ± 0.022
2 | CTGTAAGCGG | 1.03 ± 0.03
3 | CTGTAATTGT | 0.98817 ± 0.00075
4 | CTGTACAAGC | 1.15 ± 0.03
5 | CTGTACGACA | 1.18 ± 0.02
6 | CTGTACTGGG | 0.9989 ± 0.0061
7 | CTGTAGGGAC | 1.18 ± 0.025
8 | CTGTAGTAGC | 2.38 ± 1.1
9 | CTGTATATGG | 0.985 ± 0.042
10 | CTGTATATTT | 0.9593 ± 0.0055
11 | CTGTATTACG | 0.995 ± 0.027
12 | CTGTATTATA | 0.996 ± 0.031
13 | CTGTATTCTG | 0.962 ± 0.015
14 | CTGTCAACGG | 1.02 ± 0.017
15 | CTGTCATTTG | 0.985 ± 0.03
16 | CTGTCCTAAT | 1.009 ± 0.0049
17 | CTGTCCTAGG | 1.036 ± 0.0033
18 | CTGTCGACTT | 0.986 ± 0.011
19 | CTGTCGCTTA | 1.01 ± 0.019
20 | CTGTCGTGTC | 0.9934 ± 0.003
21 | CTGTGACCGT | 1.02 ± 0.025
22 | CTGTGCGTGG | 0.973 ± 0.029
23 | CTGTGGCTAT | 1.01 ± 0.023
24 | CTGTGGCTCG | 0.9986 ± 0.0057
25 | CTGTGGCTGG | 0.9795 ± 0.0073

Row | Sequence | switch fluorescence ratio
26 | CTGTGGGTTA | 0.9595 ± 0.004
27 | CTGTGTGGCC | 0.968 ± 0.073
28 | CTGTGTGTTA | 0.9816 ± 0.0036
29 | CTGTGTTTGG | 0.997 ± 0.038
30 | CTGTTAAAGG | 0.999 ± 0.013
31 | CTGTTGCCTG | 0.974 ± 0.041
32 | CTGTTGGGTC | 0.97927 ± 0.00013
33 | CTGTTTAGGG | 1.01 ± 0.018
34 | CTGTTTGTTG | 0.9707 ± 0.0013
35 | CTTAAAAATT | 0.9777 ± 0.0031
36 | CTTAACGGCG | 0.968 ± 0.044
37 | CTTAATCTC | 0.968 ± 0.02
38 | CTTACAGCTA | 1.097 ± 0.0016
39 | CTTACGGGGT | 1.1 ± 0.093
40 | CTTACGGGTC | 0.9901 ± 0.005
41 | CTTACTAGC | 1.02 ± 0.029
42 | CTTAGACCCC | 1.01 ± 0.02
43 | CTTAGAGCGG | 1.01 ± 0.022
44 | CTTAGATAAA | 0.985 ± 0.026
45 | CTTAGATGGA | 0.978 ± 0.023
46 | CTTAGCCGGG | 0.981 ± 0.032
47 | CTTAGCTAGT | 1.09 ± 0.13
48 | CTTAGGATAG | 0.996 ± 0.0029
49 | CTTAGGCCAG | 0.998 ± 0.032
50 | CTTAGGGAGT | 1.006 ± 0.0028

Row | Sequence | switch fluorescence ratio
51 | CTTAGGGCTC | 1.026 ± 0.0042
52 | CTTAGGGGTG | 0.973 ± 0.011
53 | CTTAGGGTT | 0.997 ± 0.044
54 | CTTAGTAGTT | 1.01 ± 0.015
55 | CTTAGTGGCG | 0.9757 ± 0.0038
56 | CTTAGTTAGC | 1.02 ± 0.013
57 | CTTATAACAG | 1.01 ± 0.018
58 | CTTATAGCGC | 1.007 ± 0.0066
59 | CTTATCTGGG | 0.999 ± 0.041
60 | CTTATGAGGG | 0.99 ± 0.025
61 | CTTATGGGGG | 1.03 ± 0.046
62 | CTTATTCGAT | 0.999 ± 0.012
63 | CTTATTGTTT | 0.995 ± 0.069
64 | CTTATTTGGT | 0.992 ± 0.035
65 | CTTCAAAAGG | 1.68 ± 0.96
66 | CTTCAGTTAC | 1.82 ± 0.19
67 | CTTCATCTTT | 0.996 ± 0.018
68 | CTTCCCGCCG | 1.26 ± 0.057
69 | CTTCCGGGGT | 1.68 ± 0.1
70 | CTTCCGTTTT | 1.28 ± 0.042
71 | CTTCGAAGTT | 0.98 ± 0.045
72 | CTTCGGGCGA | 1.1 ± 0.023
73 | CTTCGGGGGA | 0.992 ± 0.01
74 | CTTCGGTAAC | 2.175 ± 0.0072
75 | CTTCTACCTG | 1.01 ± 0.035

Row | Sequence | switch fluorescence ratio
76 | CTTCTCTTCA | 1.02 ± 0.03
77 | CTTCTGGAGG | 1.15 ± 0.028
78 | CTTCTGGGCG | 1.02 ± 0.032
79 | CTTGACAGA | 1.03 ± 0.024
80 | CTTGACGGTC | 1.11 ± 0.1
81 | CTTGACGGTT | 1.01 ± 0.092
82 | CTTGAGATGT | 1.02 ± 0.044
83 | CTTGAGTTAG | 1.015 ± 0.0066
84 | CTTGATACAG | 1.037 ± 0.0026
85 | CTTGATGTTG | 1.01 ± 0.012
86 | CTTGATTTGT | 1.01 ± 0.036
87 | CTTGGAGGGG | 1.0187 ± 0.00015
88 | CTTGGAGTTG | 1.02 ± 0.07
89 | CTTGGCATCT | 1.01 ± 0.033
90 | CTTGGCCGCG | 0.987 ± 0.011
91 | CTTGGGGAAT | 1.13 ± 0.24
92 | CTTGGGGCGC | 1.01 ± 0.049
93 | CTTGGGGCGG | 0.962 ± 0.017
94 | CTTGGGTGAA | 1.09 ± 0.19
95 | CTTGGGTTCT | 1 ± 0.012
96 | CTTGTAATGT | 1.02 ± 0.011
97 | CTTGTCTTAA | 1.02 ± 0.029
98 | CTTGTGCTTG | 1.0058 ± 0.00065
99 | CTTGTGGTGG | 1.006 ± 0.0089
100 | CTTGTTGAGG | 0.988 ± 0.012
